Publication PMC10545747, “Development of cyclopeptide inhibitors of cGAS targeting protein-DNA interaction and phase separation”

Tests used:
[1] = target: hcGAS-FL (D191R) (Homo sapiens, UniProt Q8N884 1-522, D191R); test: fluorescence polarization; D191R did not interfere with dsDNA binding; XQ2 inhibition markedly reduced; FP: 20 mM HEPES pH 7.5, 125 mM KCl, 10 mM MgCl2; 300 nM cGAS, 40 nM FAM-ISD; temperature not stated. MST conditions not given in the material; details: protein: recombinant; tags: 6xHis-SUMO removed by ULP1; label: 5'-FAM on sense strand; blunt
[2] = target: hcGAS-FL (Homo sapiens, UniProt Q8N884 1-522); test: fluorescence polarization; 300 nM protein, 40 nM DNA; XQ2 competes with IC50 19.2 ± 6.7 uM (inhibitor value, not DNA affinity); FP: 20 mM HEPES pH 7.5, 125 mM KCl, 10 mM MgCl2; 300 nM cGAS, 40 nM FAM-ISD; temperature not stated. MST conditions not given in the material; details: protein: recombinant; tags: 6xHis-SUMO removed by ULP1; label: 5'-FAM on sense strand; blunt
hcGAS-FL, sequence (Q8N884 whole entry): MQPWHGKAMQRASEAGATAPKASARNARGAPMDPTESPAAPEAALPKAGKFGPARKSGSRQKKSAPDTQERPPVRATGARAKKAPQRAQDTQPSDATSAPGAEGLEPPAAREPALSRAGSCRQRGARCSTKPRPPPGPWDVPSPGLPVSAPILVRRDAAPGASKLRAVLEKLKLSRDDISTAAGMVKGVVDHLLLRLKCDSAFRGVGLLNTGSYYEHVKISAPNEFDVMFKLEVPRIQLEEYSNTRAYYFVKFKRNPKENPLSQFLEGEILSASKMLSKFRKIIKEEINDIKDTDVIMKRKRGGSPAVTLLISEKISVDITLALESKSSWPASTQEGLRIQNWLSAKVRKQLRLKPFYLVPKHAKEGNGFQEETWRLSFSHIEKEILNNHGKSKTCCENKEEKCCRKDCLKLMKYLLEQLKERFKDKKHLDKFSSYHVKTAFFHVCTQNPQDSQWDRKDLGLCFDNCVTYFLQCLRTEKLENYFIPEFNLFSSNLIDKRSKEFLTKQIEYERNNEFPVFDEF

hcGAS-FL (D191R), sequence (Q8N884 whole entry D191R): as the sequence (Q8N884 whole entry) above, with D191R counted along it

B1: 45-bp FAM-ISD (dsDNA)
DNA 1: TACAGATCTACTAGTGATCTATGACTGATCTGTACATGATCTACA
DNA 2: TGTAGATCATGTACAGATCAGTCATAGATCACTAGTAGATCTGTA
binding result [1]: binds | binding result [2]: binds
